Source: article PMC7523096 (bioRxiv, 2020)

How the values were obtained:
Test in all cases: BLI
[1] = biological target: SARS-CoV-2 receptor-binding domain-RBD (residue 320-527) (SARS-CoV-2, Wuhan-Hu-1 (MN908947), UniProt P0DTC2)
[2] = biological target: SARS-CoV-2 RBD-SD1 (residue 320-591) (SARS-CoV-2, Wuhan-Hu-1 (MN908947), UniProt P0DTC2)
[3] = biological target: SARS-CoV-2 RBD-SD1-2 (residue 320-681) (SARS-CoV-2, Wuhan-Hu-1 (MN908947), UniProt P0DTC2)
[4] = biological target: SARS-CoV-2 N-terminal domain-NTD (residue 1-290) (SARS-CoV-2, Wuhan-Hu-1 (MN908947), UniProt P0DTC2)

Measured: binding result

B1: CC40.8 mAb (IgG) (antibody, V domains shown)
VH: EVQLLESGGGLVQPGGSLRLSCAASGFTFSSYVMTWARQAPGKGLEWVSAISGTGYTYYADSVKGRFTVSRDNSKNTLFLQMSSLRAEDTAVYYCAITMAPVVWGQGTTVTVSS
VL: SYELTQPPSVSVSPGQTARITCSGDALPKRYAYWYQQKSGQAPILVIYEDKKRPSGIPERLSGSKSGTVATLTISGAQVEDEADYYCYSTDSSGNHAVFGGGTQLTVL
no binding: [1] | [2] | [3] | [4]

B2: second SARS-CoV-2/HCoV-HKU1 cross-reactive mAb from the CC40 donor (other than CC40.8; name not printed in the text) (antibody, V domains shown)
VH: EVQLVESGGGVVQPGRSLRLSCVASGFTFSNYGMHWVRQAPGKGLEWVAVMSYDGSVTYYGDSVRGRFTISRDNSKNTLYLQMSSLRTDDTGVYYCAKGQPLDDIWGLGTLVTVSS
VL: EIVMTQSPLSLPVSLGQSASISCRSSQSLVHTDGITYLSWFQQRPGQSPRRLLYKVSNRDSGVPDRFSGSGSGTDFTLKISRVEAEDVGVYYCLQGTYWPWTFGQGTKVEIK
no binding: [1] | [2] | [3] | [4]

B3: CC9.1 mAb (antibody, V domains shown)
VH: EVQLVESGGGLVQPGRSLRLSCVAPGFTLGGYGMHWVRQAPGKGLEWVGLISYDGSVQKYGSSVKGRFTISKDNSKNTLYLEMNSLRADDTAVYFCVKGASLGDNWGQGTLVTVSS
VL: EIVMTQSPLSLPVTLGQPASISCRSSQSLVYSDGDTYMSWFHQRPGQSPRRLIYKVSNRDSGVPDRFSGSGSGTDFTLKISRVEAEDVGVYYCMQGTHWPYTFGPGTKVEIK
no binding: [1] | [2] | [3] | [4]

B4: CC9.2 mAb (IgG) (antibody, V domains shown)
VH: EVQLVESGGGLVQPGRSLRLSCVAPGFTLGGYGMHWVRQAPGKGLEWVGLISYDGSVQKYGSSVKGRFTISKDNSKNTLYLEMNSLRADDTAVYFCVKGASLGDNWGQGTLVTVSS
VL: EIVMTQSPLSLPVTLGQPASISCRSSQSLVYSDGDTYMSWFHQRPGQSPRRLIYKVSNRDFGVPDRFSGSGSGTDFTLKISRVEAEDVGVYYCMQGTHWPYTFGPGTKVEIK
no binding: [1] | [2] | [3] | [4]

B5: CC9.3 mAb (IgG) (antibody, V domains shown)
VH: QVQLQESGPGLVKPSETLSLTCTVSGGSIRSDFWSWIRQFPGKGLEWIGYIYYSGSTNYNPSLESRVTISVDTSKNEFSLKLNYVTAADTAIYYCARETRWNWLDSWGQGTLVTVSS
VL: DIVMTQSPDSLAVSLGERASINCKSSQTISYISNNKNYLAWYQQKPGQPPRLLIYWASTRESGVPDRFSGGGFGTDFTLTISSLQAEDVAVYYCQQYFNTPWTFGQGTKVEIK
no binding: [1] | [2] | [3] | [4]
